For this assay, the target named is BLIP2 with azF at residue 41 (BLIP2^41azF). Description: CNT-FET conductance (I-V); BLIP2 azF variant photochemically attached to p-type SWCNTs of a CNT-FET; BL (or BSA) added in DPBS, to 1.4 μM or stepwise; I-V curves, room temperature; also with 0.5% (w/v) BSA for TEM-1 on BLIP2^213azF.

“TEM-1 β-lactamase (from UniProt P62593 24-286) (enzyme)”: the conductance increase, fold lower than on BLIP2^213azF devices stood at 4 fold.

For the origin of these results see paper PMC11362306.
